How the values were obtained:
Assay in all cases: receptor-Fc IP
[1] = molecular target: T1, VEGFR-1-Fc (UniProt P17948 27-338)
T1 construct: domain: first three Ig domains; expressed in Drosophila S2 cells, purified on Protein A sepharose; also called VEGFR-1-Fc fusion protein; not shown: Fc fragment from the Signal-pIgPlus vector
Outline: (§1)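 Binding of ligand from sample supernatant measured by pentahistidine-antibody immunoprecipitation. IP mix: PBS with 1.5% BSA, 0.06% Tween 20, 3 μg/ml heparin and 400 ng/ml fusion protein, added 1:2 to sample supernatant.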

[2] = molecular target: T2, VEGFR-3-Fc (UniProt P35916 25-328)
T2 construct: domain: first three Ig domains; conditioned supernatant of 293T cells; also called VEGFR-3-Fc fusion protein; not shown: Fc fragment of the pIg vector
T2 sequence (looked up): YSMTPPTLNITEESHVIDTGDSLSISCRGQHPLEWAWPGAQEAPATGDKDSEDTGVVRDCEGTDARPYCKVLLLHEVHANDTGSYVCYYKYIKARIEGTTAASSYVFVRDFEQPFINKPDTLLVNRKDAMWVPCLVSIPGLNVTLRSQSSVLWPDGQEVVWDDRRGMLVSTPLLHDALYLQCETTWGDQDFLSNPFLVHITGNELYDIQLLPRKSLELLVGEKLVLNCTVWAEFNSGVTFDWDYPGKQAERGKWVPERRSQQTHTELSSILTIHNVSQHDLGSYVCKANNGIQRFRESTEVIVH
Outline: as §1

[3] = molecular target: T3, VEGFR-2-Fc (UniProt P35968 20-322)
T3 construct: domain: first 3 Ig domains; conditioned supernatant of 293T cells; also called VEGFR-2-Fc fusion protein; not shown: Fc fragment of the pIg vector
T3 sequence (P35968 20-322): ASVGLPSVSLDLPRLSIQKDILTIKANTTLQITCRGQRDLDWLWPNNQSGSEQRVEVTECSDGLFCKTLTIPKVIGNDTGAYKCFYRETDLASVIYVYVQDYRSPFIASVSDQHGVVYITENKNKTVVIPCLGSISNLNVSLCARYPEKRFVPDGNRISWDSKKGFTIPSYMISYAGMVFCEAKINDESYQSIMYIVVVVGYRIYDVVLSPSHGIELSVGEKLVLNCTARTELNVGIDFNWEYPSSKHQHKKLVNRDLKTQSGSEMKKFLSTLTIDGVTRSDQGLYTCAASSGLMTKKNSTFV
Outline: as §1

Measured: binding result

T1 sequence (P17948 27-338): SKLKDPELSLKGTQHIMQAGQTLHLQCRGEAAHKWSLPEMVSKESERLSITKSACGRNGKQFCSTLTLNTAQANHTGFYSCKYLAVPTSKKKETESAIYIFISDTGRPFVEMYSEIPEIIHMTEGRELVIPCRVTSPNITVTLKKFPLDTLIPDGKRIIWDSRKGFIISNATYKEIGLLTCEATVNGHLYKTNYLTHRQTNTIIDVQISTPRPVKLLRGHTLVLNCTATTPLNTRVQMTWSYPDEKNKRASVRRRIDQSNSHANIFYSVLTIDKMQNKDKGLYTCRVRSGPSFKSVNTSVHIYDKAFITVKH

B1: 32-1 (ligand)
chain: GQNHHEVVKSIDNEWRKTQCMPIETLVDIFQEFGVATNTFFKPPCVSVYRCGGCCNDEGLECVPTEESNITMQIMRIKPHQGQHIGEMSFLQHNKCECRPKKD
no binding: all assays above

B2: 32-3 (ligand)
chain: GQNHHEVVKSIDNEWRKTQCMPIETLVDIFQEFGVATNTFFKPPCVSVYRCGGCCNSEGLQCVPTEESNITMQIMRIKPHQGQHIGEMSFLQHNKCECRPKKD
no binding: all assays above

B3: 32-7 (ligand)
chain: GQNHHEVVKSIDNEWRKTQCMPIETLVDIFQEFGVATNTFFKPPCVSVYRCGGCCNSEGLQCVPTEESNITMQIMRIKPHQGQHIGEMSFANHTSCRCMSKLD
no binding: all assays above

B4: 32-5 (ligand)
chain: GQNHHEVVKSIDNEWRKTQCMPIETLVDIFQEFGVATNTFFKPPCVSVYRCGGCCNDEGLECVPTEESNITMQIMRIKPHQGQHIGEMSFANHTSCRCMSKLD
no binding: all assays above

B5: 32-13 (ligand)
chain: GQNHHEVVKSIDNEWRKTQCMPIETLVDIFQEFGVATNTFFKPPCVSVYRCGGCCNDEGLECVPTEESNITMQIMRITVPLSQGPKPVTISFANHTSCRCMSKLD
no binding: all assays above

B6: 51-2 (ligand)
chain: AHYNTEILKSIDNEWRKTQCMPIETLVDIFQEYPDEIEYIFKPSCVPLMRCGGCCNDEGLECMNTSTSYLSKTLFEIKPHQGQHIGEMSFLQHNKCECRPKKD
no binding: all assays above

B7: 51-8 (ligand)
chain: AHYNTEILKSIDNEWRKTQCMPIETLVDIFQEYPDEIEYIFKPSCVPLMRCGGCCNSEGLQCMNTSTSYLSKTLFEIKPHQGQHIGEMSFANHTSCRCMSKLD
no binding: all assays above

B8: 51-4 (ligand)
chain: AHYNTEILKSIDNEWRKTQCMPIETLVDIFQEYPDEIEYIFKPSCVPLMRCGGCCNSEGLQCMNTSTSYLSKTLFEIKPHQGQHIGEMSFLQHNKCECRPKKD
no binding: all assays above

B9: 24-11 (ligand)
chain: AHYNTEILKSIDNEWRKTQCMPREVCIDVGKEFGVATNTFFKPSCVPLMRCGGCCNSEGLQCVPTEESNITMQIMRITVPLSQGPKPVTISFLQHNKCECRPKKD
no binding: all assays above

B10: 24-15 (ligand)
chain: AHYNTEILKSIDNEWRKTQCMPREVCIDVGKEFGVATNTFFKPSCVPLMRCGGCCNSEGLQCVPTEESNITMQIMRITVPLSQGPKPVTISFANHTSCRCMSKLD
no binding: all assays above

B11: 24-13 (ligand)
chain: AHYNTEILKSIDNEWRKTQCMPREVCIDVGKEFGVATNTFFKPSCVPLMRCGGCCNDEGLECVPTEESNITMQIMRITVPLSQGPKPVTISFANHTSCRCMSKLD
no binding: all assays above

B12: 24-12 (ligand)
chain: AHYNTEILKSIDNEWRKTQCMPREVCIDVGKEFGVATNTFFKPSCVPLMRCGGCCNSEGLQCMNTSTSYLSKTLFEITVPLSQGPKPVTISFLQHNKCECRPKKD
no binding: all assays above

B13: 21-12 (ligand)
chain: AHYNTEILKSIDNEWRKTQCMPREVCIDVGKEYPDEIEYIFKPSCVPLMRCGGCCNSEGLQCMNTSTSYLSKTLFEITVPLSQGPKPVTISFLQHNKCECRPKKD
no binding: all assays above

B14: 21-13 (ligand)
chain: AHYNTEILKSIDNEWRKTQCMPREVCIDVGKEYPDEIEYIFKPSCVPLMRCGGCCNDEGLECVPTEESNITMQIMRITVPLSQGPKPVTISFANHTSCRCMSKLD
no binding: all assays above

B15: 24-2 (ligand)
chain: AHYNTEILKSIDNEWRKTQCMPREVCIDVGKEFGVATNTFFKPSCVPLMRCGGCCNDEGLECMNTSTSYLSKTLFEIKPHQGQHIGEMSFLQHNKCECRPKKD
no binding: all assays above

B16: 24-8 (ligand)
chain: AHYNTEILKSIDNEWRKTQCMPREVCIDVGKEFGVATNTFFKPSCVPLMRCGGCCNSEGLQCMNTSTSYLSKTLFEIKPHQGQHIGEMSFANHTSCRCMSKLD
no binding: all assays above

B17: 24-4 (ligand)
chain: AHYNTEILKSIDNEWRKTQCMPREVCIDVGKEFGVATNTFFKPSCVPLMRCGGCCNSEGLQCMNTSTSYLSKTLFEIKPHQGQHIGEMSFLQHNKCECRPKKD
no binding: all assays above

B18: 83-6 (ligand)
chain: AHYNTEILKFMDVYQRSYCHPIETLVDIFQEYPDEIEYIFKPPCVSVYRCGGCCNDEGLECMNTSTSYLSKTLFEIKPHQGQHIGEMSFANHTSCRCMSKLD
no binding: all assays above

B19: 51-1 (ligand)
chain: AHYNTEILKSIDNEWRKTQCMPIETLVDIFQEYPDEIEYIFKPSCVPLMRCGGCCNDEGLECVPTEESNITMQIMRIKPHQGQHIGEMSFLQHNKCECRPKKD
no binding: all assays above

B20: 51-3 (ligand)
chain: AHYNTEILKSIDNEWRKTQCMPIETLVDIFQEYPDEIEYIFKPSCVPLMRCGGCCNSEGLQCVPTEESNITMQIMRIKPHQGQHIGEMSFLQHNKCECRPKKD
no binding: all assays above

B21: 51-7 (ligand)
chain: AHYNTEILKSIDNEWRKTQCMPIETLVDIFQEYPDEIEYIFKPSCVPLMRCGGCCNSEGLQCVPTEESNITMQIMRIKPHQGQHIGEMSFANHTSCRCMSKLD
no binding: all assays above

B22: 51-5 (ligand)
chain: AHYNTEILKSIDNEWRKTQCMPIETLVDIFQEYPDEIEYIFKPSCVPLMRCGGCCNDEGLECVPTEESNITMQIMRIKPHQGQHIGEMSFANHTSCRCMSKLD
no binding: all assays above

B23: 32-6 (ligand)
chain: GQNHHEVVKSIDNEWRKTQCMPIETLVDIFQEFGVATNTFFKPPCVSVYRCGGCCNDEGLECMNTSTSYLSKTLFEIKPHQGQHIGEMSFANHTSCRCMSKLD
no binding: all assays above

B24: 32-8 (ligand)
chain: GQNHHEVVKSIDNEWRKTQCMPIETLVDIFQEFGVATNTFFKPPCVSVYRCGGCCNSEGLQCMNTSTSYLSKTLFEIKPHQGQHIGEMSFANHTSCRCMSKLD
no binding: all assays above

B25: 64-12 (ligand)
chain: GQNHHEVVKFMDVYQRSYCHPREVCIDVGKEFGVATNTFFKPSCVPLMRCGGCCNSEGLQCMNTSTSYLSKTLFEITVPLSQGPKPVTISFLQHNKCECRPKKD
no binding: all assays above

— US20080058263A1 (published 2008)
